In patent US10428140B2, “Anti-EphA4 antibody” (EISAI R&D MANAGEMENT CO., LTD., priority 2015, dated 2019):
Changes are numbered by the printed parent chain.

T1: human EphA3 (Homo sapiens, UniProt P29320)
T1 construct: a protein of the extracellular region of each human Eph receptor fused with the SEAP protein and the His tag; made in house; host or cells: Expi293F cells (culture supernatant)
T1 sequence (P29320 21-541 limits assumed): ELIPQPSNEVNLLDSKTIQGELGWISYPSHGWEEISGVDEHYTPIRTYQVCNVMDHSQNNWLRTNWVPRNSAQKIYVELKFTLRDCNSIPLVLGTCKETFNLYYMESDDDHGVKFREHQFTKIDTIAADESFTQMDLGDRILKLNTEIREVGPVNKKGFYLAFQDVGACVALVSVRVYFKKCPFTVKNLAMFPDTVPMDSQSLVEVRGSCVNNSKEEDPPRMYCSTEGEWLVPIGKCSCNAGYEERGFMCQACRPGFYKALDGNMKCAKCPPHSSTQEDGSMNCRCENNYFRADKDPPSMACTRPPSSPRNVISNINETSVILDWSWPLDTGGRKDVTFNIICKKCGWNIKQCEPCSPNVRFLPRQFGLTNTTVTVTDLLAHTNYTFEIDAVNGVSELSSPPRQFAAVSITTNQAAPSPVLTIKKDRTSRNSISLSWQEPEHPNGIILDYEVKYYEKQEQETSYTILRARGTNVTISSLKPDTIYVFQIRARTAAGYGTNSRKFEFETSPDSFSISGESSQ

T2: human EphB4 (Homo sapiens, UniProt P54760)
T2 construct: a protein of the extracellular region of each human Eph receptor fused with the SEAP protein and the His tag; made in house; host or cells: Expi293F cells
T2 sequence (P54760 16-539 limits assumed): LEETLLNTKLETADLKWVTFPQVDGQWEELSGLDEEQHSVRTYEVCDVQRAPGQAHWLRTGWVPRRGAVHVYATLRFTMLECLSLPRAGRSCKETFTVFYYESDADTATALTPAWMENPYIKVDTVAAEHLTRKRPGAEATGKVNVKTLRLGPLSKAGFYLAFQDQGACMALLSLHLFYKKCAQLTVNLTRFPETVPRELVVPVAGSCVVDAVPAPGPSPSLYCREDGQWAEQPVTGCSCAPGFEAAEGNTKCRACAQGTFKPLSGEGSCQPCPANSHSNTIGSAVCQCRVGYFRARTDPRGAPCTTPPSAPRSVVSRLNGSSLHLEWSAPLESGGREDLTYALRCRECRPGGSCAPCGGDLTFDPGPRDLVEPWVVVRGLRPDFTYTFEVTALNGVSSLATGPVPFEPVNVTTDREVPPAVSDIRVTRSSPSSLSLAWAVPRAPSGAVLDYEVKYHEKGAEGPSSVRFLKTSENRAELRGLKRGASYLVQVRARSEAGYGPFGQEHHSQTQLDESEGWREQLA

T3: human EphB6 (Homo sapiens, UniProt O15197)
T3 construct: a protein of the extracellular region of each human Eph receptor fused with the SEAP protein and the His tag; made in house; host or cells: Expi293F cells
T3 sequence (O15197 32-594 limits assumed): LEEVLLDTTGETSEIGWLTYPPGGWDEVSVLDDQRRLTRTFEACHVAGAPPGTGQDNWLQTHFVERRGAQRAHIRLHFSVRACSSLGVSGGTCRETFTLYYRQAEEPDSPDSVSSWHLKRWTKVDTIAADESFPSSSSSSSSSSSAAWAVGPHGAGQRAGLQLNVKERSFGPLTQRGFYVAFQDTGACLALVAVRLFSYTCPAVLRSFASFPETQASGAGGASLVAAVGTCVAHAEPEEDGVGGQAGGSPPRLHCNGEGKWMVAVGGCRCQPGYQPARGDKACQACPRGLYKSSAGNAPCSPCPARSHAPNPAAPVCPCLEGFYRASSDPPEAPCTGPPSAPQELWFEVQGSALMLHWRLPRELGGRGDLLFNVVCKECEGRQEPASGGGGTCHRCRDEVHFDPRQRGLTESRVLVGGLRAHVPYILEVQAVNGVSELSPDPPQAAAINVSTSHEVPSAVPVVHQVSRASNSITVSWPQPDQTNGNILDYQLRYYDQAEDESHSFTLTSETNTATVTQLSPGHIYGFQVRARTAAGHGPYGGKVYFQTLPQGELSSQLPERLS

B1: 145 (antibody, V domains shown)
VH: QVQLVQSGSELKKPGASVKVSCKASGYTFTDYSMHWVRQAPGQGLKWMGWINTETGEPTYADDFKGRFVFSLDTSVSTAYLQISSLKAEDTAVYYCARIPLYYYGSRYWYFDVWGQGTTVTVSS
VL: DIQMTQSPSSLSASVGDRVTITCRASENIYRNLAWYQQKPGKAPKLLLYAATNLADGVPSRFSGSGSGTDYTLTISSLQSEDFATYYCQHFWGTPWTFGQGTKVEIK
modifications: synthetic humanized antibody heavy chain variable region sequence; synthetic humanized antibody light chain variable region sequence
B2: 155 (antibody, V domains shown)
VH: B1 VH with V2I
VL: B1 VL
modifications: synthetic humanized antibody heavy chain variable region sequence; synthetic humanized antibody light chain variable region sequence
B3: 157 (antibody, V domains shown)
VH: B1 VH with K46E, D62Q, D63G, K65T
VL: B1 VL with K45Q, S80P
modifications: synthetic humanized antibody heavy chain variable region sequence; synthetic humanized antibody light chain variable region sequence
B4: 158 (antibody, V domains shown)
VH: B1 VH with D62Q, D63G, K65T
VL: B1 VL with K45Q, S80P
modifications: synthetic humanized antibody heavy chain variable region sequence; synthetic humanized antibody light chain variable region sequence
B5: 144 (antibody, V domains shown)
VH: B1 VH with K46E
VL: B1 VL with K45Q, S80P
modifications: synthetic humanized antibody heavy chain variable region sequence; synthetic humanized antibody light chain variable region sequence
B6: 159 (antibody, V domains shown)
VH: B1 VH
VL: B1 VL with K45Q, S80P
modifications: synthetic humanized antibody heavy chain variable region sequence; synthetic humanized antibody light chain variable region sequence
B7: 160 (antibody, V domains shown)
VH: B1 VH with V2I
VL: B1 VL with K45Q, S80P
modifications: synthetic humanized antibody heavy chain variable region sequence; synthetic humanized antibody light chain variable region sequence
B8: 133 (antibody, V domains shown)
VH: B1 VH with K46E, D62Q, D63G, K65T
VL: EIVMTQSPATLSVSPGERATLSCRASENIYRNLAWYQQKPGQSPRLLIYAATNLADGIPARFSGSGSGTEYTLTISSLQSEDFAVYYCQHFWGTPWTFGQGTKVEIK
modifications: synthetic humanized antibody heavy chain variable region sequence; synthetic humanized antibody light chain variable region sequence
B9: 134 (antibody, V domains shown)
VH: B1 VH with D62Q, D63G, K65T
VL: B8 VL
modifications: synthetic humanized antibody heavy chain variable region sequence; synthetic humanized antibody light chain variable region sequence
B10: 132 (antibody, V domains shown)
VH: B1 VH with V2I, D62Q, D63G, K65T
VL: B8 VL
modifications: synthetic humanized antibody heavy chain variable region sequence; synthetic humanized antibody light chain variable region sequence
B11: 135 (antibody, V domains shown)
VH: B1 VH with K46E
VL: B8 VL
modifications: synthetic humanized antibody heavy chain variable region sequence; synthetic humanized antibody light chain variable region sequence

target: T1, human EphA3; assay: Selectivity ELISA of humanized antibodies for human Eph receptor; assay type: binding; details: coated protein 1 nM
How it was run: (§1)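 Steps: coat anti-His antibody; block, then 1% BlockAce overnight at 4 °C; add Eph receptor extracellular region-SEAP-His (1 nM final) 1 h; add humanized antibody 1 h; add HRP anti-IgG 1 h; develop TMB; stop with acid; read 450 nm.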

Row | Molecule | hEphA3-SEAP-: absorbance at 450 nm, percentage with respect to hEphA4-SEAP-His as 100%
1 | B1 | 6.6%
2 | B2 | 5.6%
3 | B3 | 6.4%
4 | B4 | 6.5%
5 | B5 | 5.7%
6 | B6 | 5.4%
7 | B7 | 6.2%
8 | B8 | 5.0%
9 | B9 | 5.0%
10 | B10 | 4.8%
11 | B11 | 5.0%

target: T2, human EphB4; assay: as above; assay type: binding; details: coated protein 1 nM
How it was run: as §1

Row | Molecule | hEphB4-SEAP-: absorbance at 450 nm, percentage with respect to hEphA4-SEAP-His as 100%
12 | B1 | 6.7%
13 | B2 | 5.7%
14 | B3 | 6.5%
15 | B4 | 6.5%
16 | B5 | 5.7%
17 | B6 | 5.4%
18 | B7 | 6.3%
19 | B8 | 4.9%
20 | B9 | 5.1%
21 | B10 | 4.8%
22 | B11 | 5.1%

target: T3, human EphB6; assay: as above; assay type: binding; details: coated protein 1 nM
How it was run: as §1

Row | Molecule | hEphB6-SEAP-: absorbance at 450 nm, percentage with respect to hEphA4-SEAP-His as 100%
23 | B1 | 6.6%
24 | B2 | 5.6%
25 | B3 | 6.3%
26 | B4 | 6.3%
27 | B5 | 5.9%
28 | B6 | 5.5%
29 | B7 | 6.2%
30 | B8 | 4.8%
31 | B9 | 5.2%
32 | B10 | 4.7%
33 | B11 | 5.3%
